B1: No. 3: DATAS fragment; aminoacylase 1; exon extension (nucleic acid, listed as Homo sapiens)
DNA: CCAGGCAGCTGGCGAGGGGGTCACCCTAGAGTTTGCTCAGGTATGGACTTGGGACATGTGATGGGAGAGTGTGGGAGCCGGGGGAGACCCAAGTGTGCAACAGTGGAGTGTGTGCTTGGTGTGTCTGCATATGTCTGGGCATTTCTTTATCTGTGACAGACACATTTTATTCCAACAAGCATTCATTGTAGAGGCCACTGTGGGTGCTGGGGAATGCTGTGGGGAGTAAAATTAGGCACAGTTCATGCCCTTGTATGGTGAAACGGGGAGATATAAATCAAACATTTATGTGATATTACTTTTTTCTGAGAGAATCTCACTCCGTCAC
B2: No. 2: DATAS fragment; melanoma assoc. antigen (mutated) 1; exon extension (nucleic acid, listed as Homo sapiens)
DNA: GGCTCAGGGGGCACGTTTGCGTTTGGACCTGTCTGCGCGTTCTCCTGCGTGGCAGTCCTGATTTCCATACTTCTGGAGAATCCATTTCGTTAACACTGAAAGCCAGTTCTCTTTTCCTGGCAGTTTTTTTCATTTTATTTTTGGCATTTTTTACAAGATACCGTTCGGGAAAGGCTTTTGAAAGGACGGAAGCGTATTCACTGTGCGCCAGTACTCCTGGCTGTGCTGTGGTTTCTCCCGACGTGCACATCGATCTCGTATGTGTGGCATCTGATATTAAACGGGAGGTTTTAAGAAGCGTCTGCCGTGATCATGGAGCTTCGGAAGCGGGAATGGTTCTTCCGGGTTTGCTGTTTTGTCTGTTTCCCCCTTGTGTGGTTTCCGCCTGCGACAGTTCCAGAATTTGCTCTCCCACTCAGTGTGCTCTGCAGCTG

Legend:
[1] = tested on: PSMA messenger RNA (mRNA); conditions: LNCaP prostate cancer cell line after exposure; cited from earlier work
[2] = tested on: HLA class I (e.g. HLA-A2) expressing adherent 293T cells; experiment: CTL assay on reverse transfected microarray (caspase activation, fluorescent Z-VAD); type: cell-based, human; conditions: HLA-matched CD8+ T cells from prostate cancer patients incubated 4 hours on array; red fluorescent signal = positive response
Description: Additional patient samples were procured for the cytotoxic T Lymphocyte (CTL) assay. […] (PBMC) were isolated from blood drawn from patients with relevant clinical parameters, and with patient consent. Clinical data generally included patent history, physiopathology, and parameters relating to prostate cancer physiology. PBMCs were collected from 6 prostate cancer patients that met the study requirements. Duplicate samples were obtained from a single patient.
The 192 selected DATAS fragments were PCR amplified out of the library vector and directionally cloned into a eukaryotic expression vector down stream from staggered start site initiation codons. This configuration allows the DATAS fragment to be expressed in all the open reading frames, which is required because the correct reading frame is not always readily apparent.
Plasmid preparations were performed and the expression vectors containing the selcted DATAS fragment clones were re-arrayed into 96 well plates, which were subsequently used to spot glass slides for use in the CTL assay previously disclosed in International Patent Application No. PTC/US2005/032392, the disclosure of which is incorporated by reference in its entirety.
A design file containing the desired microarray positions of the DATAS expression vectors was uploaded into a high resolution scanner. The expression vectors containing the DATAS fragments were mixed with gelatin and lipofectamine and then spotted in duplicate in a pattern that matched the design file uploaded into the high resolution microarray scanner. The following positive controls, negative controls and experimental samples were spotted on the array.
The spotted arrays were then overlaid with HLA class I (e.g. HLA-A2) expressing adherent 293T cells and cultured for 48-72 hours to allow cells time to express vector-encoded transcripts.
The assay for CTL reactivity was then performed by incubating HLA-matched CD8^+ T cells from normal and prostate cancer patients on cultured reverse transfected microarray slides for 4 hours. Prior to incubation with the array, T cells from normals or patients may need to be expanded in vitro, to a small or large extent, to enhance the frequency of responding T cells. An inhibitor of activated caspase, fluorescence-tagged (sulfo-Rhodamine)-Z-VAD, is present throughout the cell incubation to bind caspases that become activated when antigen expressing adherent cells on certain spots are induced to die by the CTL. The slides are then washed to remove unbound fluorescent Z-VAD and 2-color (Green and Red) fluorescence images of the microarray slides are obtained with the microarray scanner.
Analysis and confirmation of data is then determined by visual inspection of the scanned image. The success of the reverse transfection is evaluated by observing green fluorescence at EGFP vector control spots. Then the fluorescence threshold(s) are adjusted on microarray scanner as necessary to establish relevant background and positive control signal intensities. […] Using the coordinate locations for the spots, the cDNAs yielding positive responses are identified.

Row | Molecule | PSMA messenger RNA (mRNA) down-regulated [1] | Patient ID with positive hit [2]
1 | C[C@]12CCC(=O)C[C@@H]1CC[C@@H]1[C@@H]2CC[C@]2(C)[C@@H](O)CC[C@@H]12 [5-alpha-dihydroxytestosterone] | 8-10 fold | 
2 | B1 |  | MSMPB
3 | B2 |  | EYGRT; MSMPB

Reference: patent US20120141376A1, “PROSTATE SPECIFIC TRANSCRIPTS AND THE USE THEREOF FOR PROSTATE CANCER THERAPEUTICS AND DIAGNOSTICS” (priority 2006, published 2012)
